# Laboratory results as given in the supplement of paper PMC7125110.
# ± gives the standard error. This sample holds only a part of the variants without activity.
# B1: glmS ribozyme (parent)
# chain: AUAAAAGCGCCAGAACUACAGAAAUGUAGUUGACGAGGAGGAGGUUUAUCGAAUUUUCGGCGGAUGCCUCCAAA
# Variants of: B1
# Assay: self-cleavage kobs at 10000 uM GlcN6P; higher = faster cleavage; RNA array
# Settings: with glucosamine-6-phosphate
# Outline: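 Barcoded ribozyme variants were transcribed in situ on sequenced MiSeq chips by E. coli RNA polymerase. At 37 °C, a hybridised Cy3 probe tracked them while glucosamine-6-phosphate (40 μM to 10 mM) in HEPES/KCl/Mg(OAc)2 buffer flowed in and tiles were imaged over ~14 h. Per-tile medians of signals normalised to baseline and to non-cleaving reference variants were fit to one- or two-exponential decays, giving kobs. kcat and KM came from weighted Michaelis–Menten fits across concentrations.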
row,Variant,self-cleavage kobs at 10000 uM GlcN6P [s⁻¹]
1,G40C U45A U49G,5.2e-05 ± 1.9e-05
2,A33C G35C U47A,< 1e-05
3,G13C A15U C58G,0.000104 ± 1.7e-05
4,C16G G29A C67A,0.000261 ± 8.9e-05
5,G7C C50G C61A,4e-05 ± 1.9e-05
6,A6G U45A U57G,< 1e-05
7,G37C U55A,4.97e-05 ± 1e-05
8,G37C U55G,3.62e-05 ± 8.4e-06
9,G37C A64G C70U,4.49e-05 ± 1.6e-05
10,A12G A42G U47C,0.000197 ± 3.9e-05
11,C50U G59C A64G C71U,< 1e-05
12,G51U U54C G66U,< 1e-05
13,A6C A15U C34A A39G U65A,< 1e-05
14,A12G A14C U31C U47G A52G G59A G60U,< 1e-05
15,C8G G51U G59U,< 1e-05
16,A36U G51U C68G,4.33e-05 ± 1.7e-05
17,G9U G43U A53C,< 1e-05
18,A12G G41U C70U,0.00122 ± 0.00022
19,C11A G40A U55G C71G,< 1e-05
20,A15C A33U U47C U57G C68U U69C,< 1e-05
21,A36G A64C U65G,< 1e-05
22,U31G G40U C67A,6.16e-05 ± 1.3e-05
23,C11A A42G C67U,4.66e-05 ± 1.8e-05
24,C10U A39G A42U U49A A53C U69G,< 1e-05
25,A6U A14U G29U,< 1e-05
26,G13U G40A G66C C71A,2.79e-05 ± 1.3e-05

row,Variant,self-cleavage kobs at 10000 uM GlcN6P [s⁻¹]
1,A14G G29U G40C,0.00075 ± 0.00013
2,C10G G40U U55A C61U,< 1e-05
3,A6G C16G C50G,5.57e-05 ± 2.1e-05
4,G60A C68U C70U,< 1e-05
5,G51U A53U G60U C70U,< 1e-05
6,G32A U55G U65G G66U C70G,3.69e-05 ± 1.7e-05
7,A42C C50U C68A C70A,< 1e-05
8,C10U A36C U69G,0.000116 ± 2.9e-05
9,A39C U55G C70U,0.000211 ± 4e-05
10,A52U U55C U65C C68G U69A,< 1e-05
11,G35C G37U C68G,7.56e-05 ± 2.4e-05
12,G7A G29C U47G A53G,< 1e-05
13,C11U A15G C58G C68U,0.000112 ± 2.5e-05
14,A52G U57G U65C,6.98e-05 ± 1.2e-05
15,A6G U55G C70U,8.99e-05 ± 1.5e-05
16,U31A A42G U46C,0.000411 ± 9.2e-05
17,C16U U45C U55G,0.00144 ± 0.0003
18,G29A A33U,3.01e-05 ± 5.5e-06
19,C16A G35C U65G,< 1e-05
20,G32C A36U U69G C70A,0.000103 ± 2.4e-05
21,C8G C16U A53G C61U,< 1e-05
22,A14U G37C G59C C67U,< 1e-05
23,A14C A42C U46G A52G,< 1e-05
24,A53C U69C,0.00127 ± 0.00031
25,A12G U30G A53U,9.4e-05 ± 2e-05
26,A12G G44U C58G,< 1e-05

row,Variant,self-cleavage kobs at 10000 uM GlcN6P [s⁻¹]
1,A12U G40U U54A,0.000861 ± 0.00024
2,A6U U31C A36C,< 1e-05
3,U45C U65G C70U,0.000225 ± 6.1e-05
4,G7C A15C G41A,< 1e-05
5,G13C A14G G41U,6.44e-05 ± 1.7e-05
6,G32A A33U G37U,< 1e-05
7,G7A A48G U65A,< 1e-05
8,G40A G44U U47G G60U C61U C68U,< 1e-05
9,U46C C68A,3.47e-05 ± 1e-05
10,A15G G32C G59C,< 1e-05
11,G7U A15C A36G,< 1e-05
12,G9U U30C G32A,< 1e-05
13,A6C G9C C50A C58A A64U C70G,< 1e-05
14,U2C C11U G59U,0.000103 ± 2.1e-05
15,A15G G29C G43U G60U,< 1e-05
16,G37U G38A C67U,< 1e-05
17,C8U A39C G41A U57C G59U,< 1e-05
18,U45C C50G U54A,< 1e-05
19,C11G A33G G40U C70U,< 1e-05
20,A15G A33C U46G,4.59e-05 ± 1.3e-05
21,C16A G44A C67A,9.58e-05 ± 2.5e-05
22,G7U G29C A48G C50G C71A,0.00097 ± 0.00047
23,A6G C34A A42U U54G,< 1e-05
24,C8U U31C A39U G66C,< 1e-05
25,A52U G66C,4.08e-05 ± 1.2e-05
26,C50G A53U C71G,0.000148 ± 4e-05

row,Variant,self-cleavage kobs at 10000 uM GlcN6P [s⁻¹]
1,G13A G35U G37C,< 1e-05
2,A42G U55A C68G,7.44e-05 ± 2e-05
3,U30G U47C C68U,0.000171 ± 3.3e-05
4,A12C C68G,2.93e-05 ± 8.5e-06
5,G29C C34U G38A C71U,< 1e-05
6,A48G G62C C70G,< 1e-05
7,G41U C67U,2.83e-05 ± 1.1e-05
8,A42G C58A C67U,0.00012 ± 1.9e-05
9,A12U A33C C34U C70G,< 1e-05
10,A6U C50G A53C C71A,4.1e-05 ± 2e-05
11,U45A A53G U55A U65A C67A,0.000759 ± 0.00025
12,U46A G62C C71U,< 1e-05
13,G7U C50G G51A C70G,6.12e-05 ± 1.7e-05
14,G7U C61U C70A,< 1e-05
15,A12U G59A C67G,4.16e-05 ± 1.6e-05
16,A12G A14C C50G C71A,0.000133 ± 3.2e-05
17,G37C A48G G62U,< 1e-05
18,C8G G43C C50U,< 1e-05
19,C34U G44U U54A G63C,< 1e-05
20,G9U A15C G62A,< 1e-05
21,C10A G37C G51A,< 1e-05
22,A14G G40C U49G C50G G51C,< 1e-05
23,C11U A39U U54G,0.000492 ± 0.00011
24,G43A C50A A64U,< 1e-05
25,C8U U57A U69G,0.000575 ± 0.00016
26,A14G A15G A48C,0.00148 ± 0.00029

row,Variant,self-cleavage kobs at 10000 uM GlcN6P [s⁻¹]
1,A6C C50A U55G,< 1e-05
2,A33C U46G A52U,< 1e-05
3,A12U A15U G29A,0.00126 ± 0.00032
4,G13C A42C C50U,< 1e-05
5,G9C G32C A36U U46A,< 1e-05
6,A36C A48U G63A,< 1e-05
7,C8A A12G U31G A39U,< 1e-05
8,C11G G35C G63U C67A,< 1e-05
9,A6G A52U G60A G66A,< 1e-05
10,C10G G40U U46C C71U,< 1e-05
11,U30C G40A A53C C58U,< 1e-05
12,A14C A15U G32C C58U,3.19e-05 ± 1.1e-05
13,C10U G37A G44A C70U,< 1e-05
14,C10G C11A G38C G43U G51C U56C G60C,< 1e-05
15,C50G G60A C71G,0.000124 ± 3.5e-05
16,G38U G40U G41C U47C G59C C68G,< 1e-05
17,G35C A42G U45G,< 1e-05
18,C10U U30A C68U,< 1e-05
19,A14U A53U U56G C58U,3.75e-05 ± 8.7e-06
20,C8U C10U G13C C50G G51U A52C C71A,< 1e-05
21,G32U A39G U69A,0.000121 ± 3.2e-05
22,A6G C16A G37C U69C,< 1e-05
23,G29U U55A U69A,4.12e-05 ± 1.6e-05
24,C11U G29A A39C,3.89e-05 ± 1.6e-05
25,G13A C16U G32U,0.000302 ± 4.9e-05
26,C10G A14C G63U,< 1e-05

row,Variant,self-cleavage kobs at 10000 uM GlcN6P [s⁻¹]
1,A39U A52U U56G,8.75e-05 ± 1.8e-05
2,G13C U30C U47A,8.1e-05 ± 2.1e-05
3,A4U A39G C70A,0.000171 ± 4.7e-05
4,A42G U45A U65C,0.00105 ± 0.00028
5,G29C C34G G40C C70A,< 1e-05
6,G9C C10G A52U C71A,< 1e-05
7,G51C U55C,< 1e-05
8,G21U G29C,0.00256 ± 0.0005
9,A14C U47G U54C,0.00121 ± 0.00018
10,G13U U54A U56C,0.000163 ± 3.3e-05
11,G32C C68G C71G,0.000123 ± 2.3e-05
12,G43U G44U U65G,< 1e-05
13,A36C U46A C58A,< 1e-05
14,U31C U47C C70U,0.000673 ± 0.00014
15,A14U A64C,2.75e-05 ± 1.3e-05
16,G9U A15U A52U,< 1e-05
17,G38U A53U U69G,0.000134 ± 3.5e-05
18,A14C A33G C58G U65C,< 1e-05
19,A15C A53U C71G,0.000151 ± 3.6e-05
20,G41A U45C A53U,0.000355 ± 8.4e-05
21,A36G U46A C58A,< 1e-05
22,A15U A33C C58A C68A,< 1e-05
23,C8A U56A A64G,< 1e-05
